From PMC4059916 (2014)
Where a chain is given by its changes, count along the chain named. Names may count otherwise.

T1: Rab32 1-225 (Q85L), GTP hydrolysis-defective mutant, GST removed (UniProt Q13637 1-225, Q85L)
T1 sequence: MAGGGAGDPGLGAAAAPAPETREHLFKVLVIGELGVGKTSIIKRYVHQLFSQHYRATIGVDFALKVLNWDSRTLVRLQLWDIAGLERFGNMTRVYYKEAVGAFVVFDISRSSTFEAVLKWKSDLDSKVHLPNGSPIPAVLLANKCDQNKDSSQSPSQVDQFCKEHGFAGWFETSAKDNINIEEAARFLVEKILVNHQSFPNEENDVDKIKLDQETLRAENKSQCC

B1: VARP451-640His6 Q509A/Y550A (domain or fragment)
chain: PSVVTPFSRDDRGHTPLHVAAVCGQASLIDLLVSKGAMVNATDYHGATPLHLACQKGYASVTLLLLHYKASAEVQDNNGNTPLHLACTYGHEDCVKALVAYDVESCRLDIGNEKGDTPLHIAARWGYQGVIETLLQNGASTEIQNRLKETPLKCALNSKILSVMEAYHLSFERRQKSSEAPVQSPQRSVD
B2: VARP451-640His6 (first ankyrin repeat domain, ANKRD1), wild type (domain or fragment)
chain: B1 chain with A59Q, A100Y
B3: Rab32 (Q85L/G89T/N90S/V94L) (protein)
chain: T1 sequence with G89T, N90S, V94L
modifications: Construct limits taken from the parent Rab32 1-225 (PDB 4CYM entity 1); Mg2+ and GTP-analogue state (GppCp or GTPgammaS) presumed

How the values were obtained:
Assay in all cases: ITC
[1] = target: T1, Rab32 1-225 (Q85L), GTP …
[2] = target: Rab32(Q85L) mutated at M91/R93 (Switch-II), GST removed, as used in ITC (UniProt Q13637 1-225, Q85L)
[3] = target: B2

Binder: B1
- Kd [1]: > 300 µM

Binder: B2
- Kd [2]: > 300 µM

Binder: B3
- Kd [3]: 13 µM
